These results are taken from patent US20240285749A1.

The test deals with HA ectodomain trimer (UniProt Q289M7). Briefly: Octet. (Biolayer interferometry detects binding as a change in optical thickness at a sensor tip.)

What is called Kd is the equilibrium constant for the complex coming apart. A higher Kd goes with a looser complex. Where the note is “Fab”, CR6261 returned a Kd of 0.39 nM.

Regarding F10, the Kd (scFv) is 0.063 nM.
